PMC7865483 (International Journal of Molecular Sciences, 2021)

Target: T1, Pank1 (pantothenate kinase 1), endogenous in A549 cells (human (endogenous in A549), UniProt Q8TE04 1-598)
T1 construct: pantothenate kinase 1, endogenous in the human lung cancer cell line A549; source: endogenous, A549 cells (fixed cells for PLA)
Test: proximity ligation; in situ PLA (Duolink) on fixed A549 cells, endogenous proteins; cells serum-starved for 24 h, or serum-starved and then treated with 500 μM H2O2
Settings: partners not purified

T1 sequence (Q8TE04 whole entry): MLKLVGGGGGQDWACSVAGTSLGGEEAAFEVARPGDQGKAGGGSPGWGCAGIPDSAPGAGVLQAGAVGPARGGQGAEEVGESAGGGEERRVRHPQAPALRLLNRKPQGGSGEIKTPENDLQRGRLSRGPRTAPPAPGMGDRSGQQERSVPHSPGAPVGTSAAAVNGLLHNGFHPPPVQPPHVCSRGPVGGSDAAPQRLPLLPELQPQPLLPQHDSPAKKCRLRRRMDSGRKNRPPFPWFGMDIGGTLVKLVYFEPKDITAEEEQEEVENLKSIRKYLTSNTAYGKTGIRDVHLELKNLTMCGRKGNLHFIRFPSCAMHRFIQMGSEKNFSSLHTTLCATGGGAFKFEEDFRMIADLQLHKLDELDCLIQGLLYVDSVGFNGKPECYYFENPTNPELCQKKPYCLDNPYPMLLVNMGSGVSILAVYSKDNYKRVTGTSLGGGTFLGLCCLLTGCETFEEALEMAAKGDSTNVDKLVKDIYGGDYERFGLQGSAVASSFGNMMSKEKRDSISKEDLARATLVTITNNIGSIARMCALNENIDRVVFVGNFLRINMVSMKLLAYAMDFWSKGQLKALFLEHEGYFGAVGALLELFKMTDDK

Row | Binder | fold increase of the PLA signal after stress treatments, against control conditions [fold] | fold increase of the PLA signal after 24 h serum starvation, against control cells [fold]
1 | 4′-phosphopantothenoylcysteine synthetase (PPCS) (enzyme) not shown | ~10 | –
2 | CoA synthase (CoAsy) (enzyme, human (endogenous in HEK293 and A549), UniProt Q13057 1-564, looked up) MAVFRSGLLVLTTPLASLAPRLASILTSAARLVNHTLYVHLQPGMSLEGPAQPQSSPVQATFEVLDFITHLYAGADVHRHLDVRILLTNIRTKSTFLPPLPTSVQNLAHPPEVVLTDFQTLDGSQYNPVKQQLVRYATSCYSCCPRLASVLLYSDYGIGEVPVEPLDVPLPSTIRPASPVAGSPKQPVRGYYRGAVGGTFDRLHNAHKVLLSVACILAQEQLVVGVADKDLLKSKLLPELLQPYTERVEHLSEFLVDIKPSLTFDVIPLLDPYGPAGSDPSLEFLVVSEETYRGGMAINRFRLENDLEELALYQIQLLKDLRHTENEEDKVSSSSFRQRMLGNLLRPPYERPELPTCLYVIGLTGISGSGKSSIAQRLKGLGAFVIDSDHLGHRAYAPGGPAYQPVVEAFGTDILHKDGIINRKVLGSRVFGNKKQLKILTDIMWPIIAKLAREEMDRAVAEGKRVCVIDAAVLLEAGWQNLVHEVWTAVIPETEAVRRIVERDGLSEAAAQSRLQSQMSGQQLVEQSHVVLSTLWEPHITQRQVEKAWALLQKRIPKTHQALD | ~10 | ~10
